# Laboratory results published in publication PMC8956578, “The inner side of yeast PCNA contributes to genome stability by mediating interactions with Rad18 and the replicative DNA polymerase δ” (Scientific Reports, 2022).
# Target: the molecule itself
# Assay: native gel or EMSA; increasing concentrations of purified wild-type and mutant PCNA on a 12% non-denaturing polyacrylamide gel
protein,measurement,value
"wild-type PCNA (proliferating cell nuclear antigen), purified (natural protein, yeast, UniProt P15873 1-258, looked up, PCNA (POL30), yeast; open reading frame cloned in N-terminal fusion with GST; also called Pol30; source: protease deficient yeast strain BJ5464, galactose inducible promoter (pBJ842 backbone), purified) MLEAKFEEASLFKRIIDGFKDCVQLVNFQCKEDGIIAQAVDDSRVLLVSLEIGVEAFQEYRCDHPVTLGMDLTSLSKILRCGNNTDTLTLIADNTPDSIILLFEDTKKDRIAEYSLKLMDIDADFLKIEELQYDSTLSLPSSEFSKIVRDLSQLSDSINIMITKETIKFVADGDIGSGSVIIKPFVDMEHPETSIKLEMDQPVDLTFGAKYLLDIIKGSSLSDRVGIRLSSEAPALFQFDLKSGFLQFFLAPKFNDEE",stoichiometry N,3
